Assay results as given in PMC12170886, “CHD8 interacts with BCL11A to induce oncogenic transcription in triple negative breast cancer” (The EMBO Journal, 2025).

Molecular target: T1, recombinant full-length human CHD8 (human, UniProt Q9HCK8 1-2581)
T1 construct: CHD8, human, full length; no cleavage of the tag is described; also called full-length CHD8; full-length Chd8; source: Expi293F, transiently transfected, purified (StrepTactin XT 4-Flow resin)
Test: SPR; Biacore T200; CHD8 amine-coupled to a C1 chip (1585 RU), BSA-coupled reference cell; BCL11A injected 2.62-5737.5 nM (1:3 series), 600 s association, 300 s dissociation; 25 °C, HBS-P+ (10 mM HEPES, 150 mM NaCl, 0.05% Tween 20, pH 7.4); steady-state fit of responses at 600 s
Conditions: both partners purified

T1 sequence (Q9HCK8 whole entry): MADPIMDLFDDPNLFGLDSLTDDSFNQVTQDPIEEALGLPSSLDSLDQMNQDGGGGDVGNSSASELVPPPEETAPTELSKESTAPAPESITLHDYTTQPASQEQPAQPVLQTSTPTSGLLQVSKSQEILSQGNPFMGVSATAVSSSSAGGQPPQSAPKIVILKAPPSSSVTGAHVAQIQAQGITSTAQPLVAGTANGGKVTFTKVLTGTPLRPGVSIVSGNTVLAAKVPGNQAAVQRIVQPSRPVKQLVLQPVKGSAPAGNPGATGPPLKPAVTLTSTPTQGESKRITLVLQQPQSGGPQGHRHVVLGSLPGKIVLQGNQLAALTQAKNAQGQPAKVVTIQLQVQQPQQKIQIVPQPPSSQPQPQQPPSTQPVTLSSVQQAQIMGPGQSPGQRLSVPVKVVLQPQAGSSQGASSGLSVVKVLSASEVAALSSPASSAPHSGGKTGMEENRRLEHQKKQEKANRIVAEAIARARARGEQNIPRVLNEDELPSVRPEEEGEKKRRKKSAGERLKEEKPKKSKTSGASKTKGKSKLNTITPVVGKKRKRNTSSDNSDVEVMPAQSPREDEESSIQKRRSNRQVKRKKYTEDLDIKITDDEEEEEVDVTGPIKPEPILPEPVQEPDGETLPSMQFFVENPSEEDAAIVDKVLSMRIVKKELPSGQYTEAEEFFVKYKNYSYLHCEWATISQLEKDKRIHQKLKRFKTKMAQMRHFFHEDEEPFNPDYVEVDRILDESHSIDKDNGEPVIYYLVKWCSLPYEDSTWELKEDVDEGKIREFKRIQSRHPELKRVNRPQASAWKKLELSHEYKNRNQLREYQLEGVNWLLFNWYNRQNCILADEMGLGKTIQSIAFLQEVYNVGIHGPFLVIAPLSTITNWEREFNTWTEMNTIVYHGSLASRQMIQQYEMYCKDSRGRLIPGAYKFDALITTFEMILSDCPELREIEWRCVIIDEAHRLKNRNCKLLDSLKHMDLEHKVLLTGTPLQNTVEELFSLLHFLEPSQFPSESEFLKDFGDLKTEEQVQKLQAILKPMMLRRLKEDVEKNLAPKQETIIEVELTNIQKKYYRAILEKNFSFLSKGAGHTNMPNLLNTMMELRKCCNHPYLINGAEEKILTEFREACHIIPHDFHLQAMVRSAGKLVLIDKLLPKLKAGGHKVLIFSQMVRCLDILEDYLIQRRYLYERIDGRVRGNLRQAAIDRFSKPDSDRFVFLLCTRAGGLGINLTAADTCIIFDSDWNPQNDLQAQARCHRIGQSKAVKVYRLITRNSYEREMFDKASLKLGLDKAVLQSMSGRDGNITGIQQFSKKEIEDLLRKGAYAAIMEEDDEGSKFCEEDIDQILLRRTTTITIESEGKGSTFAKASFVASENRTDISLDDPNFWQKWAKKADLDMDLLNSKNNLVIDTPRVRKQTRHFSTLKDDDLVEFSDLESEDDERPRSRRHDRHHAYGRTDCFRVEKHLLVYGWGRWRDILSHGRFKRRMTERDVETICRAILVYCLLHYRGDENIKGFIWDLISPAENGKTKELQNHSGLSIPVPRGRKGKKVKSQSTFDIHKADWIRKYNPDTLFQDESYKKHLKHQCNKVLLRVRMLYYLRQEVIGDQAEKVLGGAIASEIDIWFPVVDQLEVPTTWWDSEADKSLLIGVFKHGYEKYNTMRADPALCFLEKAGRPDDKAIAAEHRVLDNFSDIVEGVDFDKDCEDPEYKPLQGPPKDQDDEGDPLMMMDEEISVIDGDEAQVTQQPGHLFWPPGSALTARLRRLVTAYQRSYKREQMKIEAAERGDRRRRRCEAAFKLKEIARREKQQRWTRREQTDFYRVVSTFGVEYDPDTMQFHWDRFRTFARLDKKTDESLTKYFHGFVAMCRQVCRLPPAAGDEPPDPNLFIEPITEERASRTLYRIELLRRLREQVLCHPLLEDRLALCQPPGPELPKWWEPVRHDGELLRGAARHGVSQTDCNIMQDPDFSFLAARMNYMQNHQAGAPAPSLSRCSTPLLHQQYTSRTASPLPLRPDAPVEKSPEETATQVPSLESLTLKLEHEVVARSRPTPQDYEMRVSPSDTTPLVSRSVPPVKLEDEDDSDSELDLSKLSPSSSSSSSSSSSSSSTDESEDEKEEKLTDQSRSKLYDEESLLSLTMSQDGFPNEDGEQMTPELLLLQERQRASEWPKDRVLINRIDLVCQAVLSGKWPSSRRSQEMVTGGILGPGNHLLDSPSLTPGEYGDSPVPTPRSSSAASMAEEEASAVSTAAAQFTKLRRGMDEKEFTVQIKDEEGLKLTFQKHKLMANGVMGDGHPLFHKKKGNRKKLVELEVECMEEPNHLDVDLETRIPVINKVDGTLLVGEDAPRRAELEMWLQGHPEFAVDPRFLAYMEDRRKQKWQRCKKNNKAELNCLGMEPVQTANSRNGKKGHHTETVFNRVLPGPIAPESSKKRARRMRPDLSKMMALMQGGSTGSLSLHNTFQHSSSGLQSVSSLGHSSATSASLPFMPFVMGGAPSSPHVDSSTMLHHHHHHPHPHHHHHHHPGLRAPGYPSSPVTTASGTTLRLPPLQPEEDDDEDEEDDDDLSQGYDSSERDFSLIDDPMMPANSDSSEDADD

Kd: 870 nM
B1: recombinant full-length human BCL11A (natural protein, UniProt Q9H165 1-835, looked up)
chain: MSRRKQGKPQHLSKREFSPEPLEAILTDDEPDHGPLGAPEGDHDLLTCGQCQMNFPLGDILIFIEHKRKQCNGSLCLEKAVDKPPSPSPIEMKKASNPVEVGIQVTPEDDDCLSTSSRGICPKQEHIADKLLHWRGLSSPRSAHGALIPTPGMSAEYAPQGICKDEPSSYTCTTCKQPFTSAWFLLQHAQNTHGLRIYLESEHGSPLTPRVGIPSGLGAECPSQPPLHGIHIADNNPFNLLRIPGSVSREASGLAEGRFPPTPPLFSPPPRHHLDPHRIERLGAEEMALATHHPSAFDRVLRLNPMAMEPPAMDFSRRLRELAGNTSSPPLSPGRPSPMQRLLQPFQPGSKPPFLATPPLPPLQSAPPPSQPPVKSKSCEFCGKTFKFQSNLVVHRRSHTGEKPYKCNLCDHACTQASKLKRHMKTHMHKSSPMTVKSDDGLSTASSPEPGTSDLVGSASSALKSVVAKFKSENDPNLIPENGDEEEEEDDEEEEEEEEEEEEELTESERVDYGFGLSLEAARHHENSSRGAVVGVGDESRALPDVMQGMVLSSMQHFSEAFHQVLGEKHKRGHLAEAEGHRDTCDEDSVAGESDRIDDGTVNGRGCSPGESASGGLSKKLLLGSPSSLSPFSKRIKLEKEFDLPPAAMPNTENVYSQWLAGYAASRQLKDPFLSFGDSRQSPFASSSEHSSENGSLRFSTPPGELDGGISGRSGTGSGGSTPHISGPGPGRPSSKEGRRSDTCEYCGKVFKNCSNLTVHRRSHTGERPYKCELCNYACAQSSKLTRHMKTHGQVGKDVYKCEICKMPFSVYSTLEKHMKKWHSDRVLNNDIKTE
notes: BCL11A, human, full length; no cleavage of the tag is described; also called full-length BCL11A; source: Expi293F, transiently transfected, purified (StrepTactin XT 4-Flow resin)
